Data: patent US20200002439A1 (GENSUN BIOPHARMA, published 2020)
Like-named read-outs stand apart in the source and are kept apart here.

Tests used:
[1] = target: T1, recombinant human VEGF 165 (human, UniProt P15692-4 27-191); test: blocking ELISA: VEGF 165 coated on the plate, binding of recombinant human VEGFR-2 is blocked
T1 construct: Bought protein
Protocol: (§1) In brief, 96-well assay plates were coated with 0.5 ug/ml of recombinant human VEGF 165 (R&D) in carbonate-bicarbonate buffer (pH 9.6) at 4° C. overnight followed by blocking with 1% BSA/PBS for 1 hour at room temperature. Serially diluted antibodies were then added to the plate and incubated for 30 minutes at room temperature. […] Followed by washing with Wash Buffer, goat anti-mouse IgG-HRP were added to the plate and incubated for 1 hour at room temperature. […] IC50 values were determined as the mid-point in the activity curve.

[2] = target: T1, recombinant human VEGF 165; test: as above; remark: listed apart in the source
Protocol: as §1

T1 sequence (P15692 other isoform, or with tags, fused parts or gaps limits assumed): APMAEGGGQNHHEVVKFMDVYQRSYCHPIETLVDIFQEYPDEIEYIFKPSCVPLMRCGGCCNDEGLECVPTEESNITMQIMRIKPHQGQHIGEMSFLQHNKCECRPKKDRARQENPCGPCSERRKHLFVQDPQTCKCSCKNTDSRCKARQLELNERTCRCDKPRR

IC50 [1]: 0.2 nM
IC50 [2]: 0.29 nM
B1: aflibercept peptide (positive control) (other)
chain: SDTGRPFVEMYSEIPEIIHMTEGRELVIPCRVTSPNITVTLKKFPLDTLIPDGKRIIWDSRKGFIISNATYKEIGLLTCEATVNGHLYKTNYLTHRQTNTIIDVVLSPSHGIELSVGEKLVLNCTARTELNVGIDFNWEYPSSKHQHKKLVNRDLKTQSGSEMKKFLSTLTIDGVTRSDQGLYTCAASSGLMTKKNSTFVRVHEK
